Experimental data reported in patent US20200069778A1, “PLANT-EXPRESSED COCAINE HYDROLASE VARIANTS OF BUTYRYLCHOL[…] METHODS OF REDUCING COCAINE-PRIMED REINSTATEMENT” (priority 2018, published 2020).

Test: Radiometric (−)-cocaine hydrolysis assay
Format: biochemical
Conditions: 25° C.

B1: WT pBChE (protein, UniProt P06276 29-602, looked up)
Cholinesterase: EDDIIIATKNGKVRGMNLTVFGGTVTAFLGIPYAQPPLGRLRFKKPQSLTKWSDIWNATKYANSCCQNIDQSFPGFHGSEMWNPNTDLSEDCLYLNVWIPAPKPKNATVLIWIYGGGFQTGTSSLHVYDGKFLARVERVIVVSMNYRVGALGFLALPGNPEAPGNMGLFDQQLALQWVQKNIAAFGGNPKSVTLFGESAGAASVSLHLLSPGSHSLFTRAILQSGSFNAPWAVTSLYEARNRTLNLAKLTGCSRENETEIIKCLRNKDPQEILLNEAFVVPYGTPLSVNFGPTVDGDFLTDMPDILLELGQFKKTQILVGVNKDEGTAFLVYGAPGFSKDNNSIITRKEFQEGLKIFFPGVSEFGKESILFHYTDWVDDQRPENYREALGDVVGDYNFICPALEFTKKFSEWGNNAFFYYFEHRSSKLPWPEWMGVMHGYEIEFVFGLPLERRDNYTKAEEILSRSIVKRWANFAKYGNPNETQNNSTSWPVFKSTEQKYLTLNTESTRIMTKLRAQQCRFWTSFFPKVLEMTGNIDEAEWEWKAGFHRWNNYMMDWKNQFNDYTSKKESCVGL
modifications: plant-expressed
Km: 2.9 µM | kcat against (−)-cocaine: 0.0433 s⁻¹
